Data taken from publication PMC8782820.

Tests used:
[1] = target: hepcidin-imprinted silk fibroin (SilMA) nanoparticles, bioMIPs (Bombyx mori); assay: ITC; hepcidin 28 μM (syringe, 50 μL) titrated into bioMIP or control SF-NPs 2.5 μM (220 μL) in 50 mM PBS pH 7.4, 25 °C, 16 injections of 3 μL; independent site model; triplicate
[2] = target: hepcidin-imprinted silk fibroin (SilMA) nanoparticles, bioMIPs (Bombyx mori); assay: competitive fluorescence assay; 30 μg/well of bioMIPs with hepcidin-depleted pooled serum (10 μL in 150 μL PBS 10 mM pH 7.4, 0.08% Tween-20), hepfitc 500 or 250 pmol, hepcidin competitor 0.11, 0.34, 0.68, 2.70 μM; displacement from ≥ 120 min of incubation; Hill fit
[3] = target: hepcidin-imprinted silk fibroin (SilMA) nanoparticles, bioMIPs (Bombyx mori); assay: other fluorescence titration; 37.5 μg of bioMIPs or non-imprinted SF-NPs per well incubated with hepfitc 3 nM–2.5 μM in PBS 10 mM pH 7.4 with 0.08% Tween-20, read at 30 min; Langmuir fit; apparent
[4] = target: hepcidin-imprinted silk fibroin (SilMA) nanoparticles, bioMIPs (Bombyx mori); assay: competitive fluorescence assay; bioMIPs incubated with hepfitc (500 pmol) alone or with one competitor (hepcidin; angiotensin, cytochrome c or human serum albumin 6 nmol); bound hepfitc at 30 min; triplicate

Kd [1] [µM] | dH [1] [kcal/mol] | stoichiometry N [1] | Ka [2] [M⁻¹] | Kd [2] [µM] | Kd [3] [µM] | imprinting factor (hepfitc bound to the bioMIP with respect to that bound to the NIP) [3] | hepfitc bound at 30 min [4] [pmol] | Substance
0.36 | -14 | 2.1 | 2.41e+06 | 0.41 |  |  |  | Hepcidin-25 (from UniProt P81172 60-84) (peptide)
 |  |  |  |  | 1.67 | 2 | 125 | fluorescent hepcidin (hepfitc) (peptide)
